Numbered stars: 1 amine (or outer) side, 2 acyl side, 3 side chain; on linkers, the order of the positions; unused ones are H or OH. Square brackets hold non-standard residues; d marks the D form. Side chains are listed from the residue outwards. * marks the point of attachment. C18 diacid = O=C(O)CCCCCCCCCCCCCCCCC(=O)*; γGlu = O=C(O)[C@H](CCC(=O)[*:2])N[*:1]; Aib = CC(C)(N)C(=O)O
Legend:
[1] = target: human glucagon-like peptide 1 receptor (GLP-1R) (human, UniProt P43220); experiment: cell-based or functional assay
[2] = target: T1, human GLP-2 receptor (hGLP2-R) (human, UniProt O95838); experiment: cell-based or functional assay
T1 sequence: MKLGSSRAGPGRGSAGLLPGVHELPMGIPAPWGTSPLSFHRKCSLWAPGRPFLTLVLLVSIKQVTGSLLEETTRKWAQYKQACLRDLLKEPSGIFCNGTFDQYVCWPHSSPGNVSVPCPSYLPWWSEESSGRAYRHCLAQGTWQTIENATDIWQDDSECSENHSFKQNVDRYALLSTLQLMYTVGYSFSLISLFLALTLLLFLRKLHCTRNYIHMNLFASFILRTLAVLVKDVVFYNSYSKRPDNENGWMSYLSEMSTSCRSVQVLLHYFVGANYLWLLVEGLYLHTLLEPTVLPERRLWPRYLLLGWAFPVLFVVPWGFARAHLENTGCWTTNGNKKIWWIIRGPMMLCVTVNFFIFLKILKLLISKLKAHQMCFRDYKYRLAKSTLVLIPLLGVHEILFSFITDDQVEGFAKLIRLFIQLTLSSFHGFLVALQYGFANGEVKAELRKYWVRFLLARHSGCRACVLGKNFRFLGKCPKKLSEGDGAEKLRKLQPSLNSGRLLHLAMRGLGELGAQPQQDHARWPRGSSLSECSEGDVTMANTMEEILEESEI

B1: Compound 24 (peptide)
peptide: H-H[Aib]EGSFTSELATILDK([γGlu-C18 diacid])QAARDFIAWLIEHKITD-OH
SMILES: CC[C@H](C)[C@H](NC(=O)[C@H](Cc1ccccc1)NC(=O)[C@H](CC(=O)O)NC(=O)[C@H](CCCNC(=N)N)NC(=O)[C@H](C)NC(=O)[C@H](C)NC(=O)[C@H](CCC(N)=O)NC(=O)[C@H](CCCCNC(=O)CC[C@H](NC(=O)CCCCCCCCCCCCCCCCC(=O)O)C(=O)O)NC(=O)[C@H](CC(=O)O)NC(=O)[C@H](CC(C)C)NC(=O)[C@@H](NC(=O)[C@@H](NC(=O)[C@H](C)NC(=O)[C@H](CC(C)C)NC(=O)[C@H](CCC(=O)O)NC(=O)[C@H](CO)NC(=O)[C@@H](NC(=O)[C@H](Cc1ccccc1)NC(=O)[C@H](CO)NC(=O)CNC(=O)[C@H](CCC(=O)O)NC(=O)C(C)(C)NC(=O)[C@@H](N)Cc1c[nH]cn1)[C@@H](C)O)[C@@H](C)O)[C@@H](C)CC)C(=O)N[C@@H](C)C(=O)N[C@@H](Cc1c[nH]c2ccccc12)C(=O)N[C@@H](CC(C)C)C(=O)N[C@H](C(=O)N[C@@H](CCC(=O)O)C(=O)N[C@@H](Cc1c[nH]cn1)C(=O)N[C@@H](CCCCN)C(=O)N[C@H](C(=O)N[C@H](C(=O)N[C@@H](CC(=O)O)C(=O)O)[C@@H](C)O)[C@@H](C)CC)[C@@H](C)CC
EC50 GLP-1 (nM), cAMP AlphaScreen [1]: 0.21 nM
EC50 GLP-2 (nM), cAMP AlphaScreen [2]: 0.17 nM

B2: Compound 23 (peptide)
peptide: H-H[Aib]EGTFTSELATILDK([γGlu-C18 diacid])QAARDFIAWLIAHKITD-OH
SMILES: CC[C@H](C)[C@H](NC(=O)[C@H](CC(C)C)NC(=O)[C@H](Cc1c[nH]c2ccccc12)NC(=O)[C@H](C)NC(=O)[C@@H](NC(=O)[C@H](Cc1ccccc1)NC(=O)[C@H](CC(=O)O)NC(=O)[C@H](CCCNC(=N)N)NC(=O)[C@H](C)NC(=O)[C@H](C)NC(=O)[C@H](CCC(N)=O)NC(=O)[C@H](CCCCNC(=O)CC[C@H](NC(=O)CCCCCCCCCCCCCCCCC(=O)O)C(=O)O)NC(=O)[C@H](CC(=O)O)NC(=O)[C@H](CC(C)C)NC(=O)[C@@H](NC(=O)[C@@H](NC(=O)[C@H](C)NC(=O)[C@H](CC(C)C)NC(=O)[C@H](CCC(=O)O)NC(=O)[C@H](CO)NC(=O)[C@@H](NC(=O)[C@H](Cc1ccccc1)NC(=O)[C@@H](NC(=O)CNC(=O)[C@H](CCC(=O)O)NC(=O)C(C)(C)NC(=O)[C@@H](N)Cc1c[nH]cn1)[C@@H](C)O)[C@@H](C)O)[C@@H](C)O)[C@@H](C)CC)[C@@H](C)CC)C(=O)N[C@@H](C)C(=O)N[C@@H](Cc1c[nH]cn1)C(=O)N[C@@H](CCCCN)C(=O)N[C@H](C(=O)N[C@H](C(=O)N[C@@H](CC(=O)O)C(=O)O)[C@@H](C)O)[C@@H](C)CC
EC50 GLP-1 (nM), cAMP AlphaScreen [1]: 0.13 nM
EC50 GLP-2 (nM), cAMP AlphaScreen [2]: 0.24 nM

B3: Compound 21 (peptide)
peptide: H-H[Aib]EGTFSSELATILDK([γGlu-C18 diacid])QAARDFIAWLIAHKITD-OH
SMILES: CC[C@H](C)[C@H](NC(=O)[C@H](CC(C)C)NC(=O)[C@H](Cc1c[nH]c2ccccc12)NC(=O)[C@H](C)NC(=O)[C@@H](NC(=O)[C@H](Cc1ccccc1)NC(=O)[C@H](CC(=O)O)NC(=O)[C@H](CCCNC(=N)N)NC(=O)[C@H](C)NC(=O)[C@H](C)NC(=O)[C@H](CCC(N)=O)NC(=O)[C@H](CCCCNC(=O)CC[C@H](NC(=O)CCCCCCCCCCCCCCCCC(=O)O)C(=O)O)NC(=O)[C@H](CC(=O)O)NC(=O)[C@H](CC(C)C)NC(=O)[C@@H](NC(=O)[C@@H](NC(=O)[C@H](C)NC(=O)[C@H](CC(C)C)NC(=O)[C@H](CCC(=O)O)NC(=O)[C@H](CO)NC(=O)[C@H](CO)NC(=O)[C@H](Cc1ccccc1)NC(=O)[C@@H](NC(=O)CNC(=O)[C@H](CCC(=O)O)NC(=O)C(C)(C)NC(=O)[C@@H](N)Cc1c[nH]cn1)[C@@H](C)O)[C@@H](C)O)[C@@H](C)CC)[C@@H](C)CC)C(=O)N[C@@H](C)C(=O)N[C@@H](Cc1c[nH]cn1)C(=O)N[C@@H](CCCCN)C(=O)N[C@H](C(=O)N[C@H](C(=O)N[C@@H](CC(=O)O)C(=O)O)[C@@H](C)O)[C@@H](C)CC
EC50 GLP-1 (nM), cAMP AlphaScreen [1]: 1.8 nM
EC50 GLP-2 (nM), cAMP AlphaScreen [2]: 0.27 nM

B4: Compound 25 (peptide)
peptide: H-H[Aib]EGTFTSELATILDK([γGlu-C18 diacid])QAARDFIAWLIEHKITD-OH
SMILES: CC[C@H](C)[C@H](NC(=O)[C@H](Cc1ccccc1)NC(=O)[C@H](CC(=O)O)NC(=O)[C@H](CCCNC(=N)N)NC(=O)[C@H](C)NC(=O)[C@H](C)NC(=O)[C@H](CCC(N)=O)NC(=O)[C@H](CCCCNC(=O)CC[C@H](NC(=O)CCCCCCCCCCCCCCCCC(=O)O)C(=O)O)NC(=O)[C@H](CC(=O)O)NC(=O)[C@H](CC(C)C)NC(=O)[C@@H](NC(=O)[C@@H](NC(=O)[C@H](C)NC(=O)[C@H](CC(C)C)NC(=O)[C@H](CCC(=O)O)NC(=O)[C@H](CO)NC(=O)[C@@H](NC(=O)[C@H](Cc1ccccc1)NC(=O)[C@@H](NC(=O)CNC(=O)[C@H](CCC(=O)O)NC(=O)C(C)(C)NC(=O)[C@@H](N)Cc1c[nH]cn1)[C@@H](C)O)[C@@H](C)O)[C@@H](C)O)[C@@H](C)CC)C(=O)N[C@@H](C)C(=O)N[C@@H](Cc1c[nH]c2ccccc12)C(=O)N[C@@H](CC(C)C)C(=O)N[C@H](C(=O)N[C@@H](CCC(=O)O)C(=O)N[C@@H](Cc1c[nH]cn1)C(=O)N[C@@H](CCCCN)C(=O)N[C@H](C(=O)N[C@H](C(=O)N[C@@H](CC(=O)O)C(=O)O)[C@@H](C)O)[C@@H](C)CC)[C@@H](C)CC
EC50 GLP-1 (nM), cAMP AlphaScreen [1]: 0.094 nM
EC50 GLP-2 (nM), cAMP AlphaScreen [2]: 0.33 nM

B5: Compound 20 (peptide)
peptide: H-H[Aib]EGTFSSELATILDK([γGlu-C18 diacid])QAARDFIAWLIEHKITD-OH
SMILES: CC[C@H](C)[C@H](NC(=O)[C@H](Cc1ccccc1)NC(=O)[C@H](CC(=O)O)NC(=O)[C@H](CCCNC(=N)N)NC(=O)[C@H](C)NC(=O)[C@H](C)NC(=O)[C@H](CCC(N)=O)NC(=O)[C@H](CCCCNC(=O)CC[C@H](NC(=O)CCCCCCCCCCCCCCCCC(=O)O)C(=O)O)NC(=O)[C@H](CC(=O)O)NC(=O)[C@H](CC(C)C)NC(=O)[C@@H](NC(=O)[C@@H](NC(=O)[C@H](C)NC(=O)[C@H](CC(C)C)NC(=O)[C@H](CCC(=O)O)NC(=O)[C@H](CO)NC(=O)[C@H](CO)NC(=O)[C@H](Cc1ccccc1)NC(=O)[C@@H](NC(=O)CNC(=O)[C@H](CCC(=O)O)NC(=O)C(C)(C)NC(=O)[C@@H](N)Cc1c[nH]cn1)[C@@H](C)O)[C@@H](C)O)[C@@H](C)CC)C(=O)N[C@@H](C)C(=O)N[C@@H](Cc1c[nH]c2ccccc12)C(=O)N[C@@H](CC(C)C)C(=O)N[C@H](C(=O)N[C@@H](CCC(=O)O)C(=O)N[C@@H](Cc1c[nH]cn1)C(=O)N[C@@H](CCCCN)C(=O)N[C@H](C(=O)N[C@H](C(=O)N[C@@H](CC(=O)O)C(=O)O)[C@@H](C)O)[C@@H](C)CC)[C@@H](C)CC
EC50 GLP-1 (nM), cAMP AlphaScreen [1]: 0.55 nM
EC50 GLP-2 (nM), cAMP AlphaScreen [2]: 0.37 nM

B6: Compound 22 (peptide)
peptide: H-H[Aib]EGSFTSELATILDK([γGlu-C18 diacid])QAARDFIAWLIAHKITD-OH
SMILES: CC[C@H](C)[C@H](NC(=O)[C@H](CC(C)C)NC(=O)[C@H](Cc1c[nH]c2ccccc12)NC(=O)[C@H](C)NC(=O)[C@@H](NC(=O)[C@H](Cc1ccccc1)NC(=O)[C@H](CC(=O)O)NC(=O)[C@H](CCCNC(=N)N)NC(=O)[C@H](C)NC(=O)[C@H](C)NC(=O)[C@H](CCC(N)=O)NC(=O)[C@H](CCCCNC(=O)CC[C@H](NC(=O)CCCCCCCCCCCCCCCCC(=O)O)C(=O)O)NC(=O)[C@H](CC(=O)O)NC(=O)[C@H](CC(C)C)NC(=O)[C@@H](NC(=O)[C@@H](NC(=O)[C@H](C)NC(=O)[C@H](CC(C)C)NC(=O)[C@H](CCC(=O)O)NC(=O)[C@H](CO)NC(=O)[C@@H](NC(=O)[C@H](Cc1ccccc1)NC(=O)[C@H](CO)NC(=O)CNC(=O)[C@H](CCC(=O)O)NC(=O)C(C)(C)NC(=O)[C@@H](N)Cc1c[nH]cn1)[C@@H](C)O)[C@@H](C)O)[C@@H](C)CC)[C@@H](C)CC)C(=O)N[C@@H](C)C(=O)N[C@@H](Cc1c[nH]cn1)C(=O)N[C@@H](CCCCN)C(=O)N[C@H](C(=O)N[C@H](C(=O)N[C@@H](CC(=O)O)C(=O)O)[C@@H](C)O)[C@@H](C)CC
EC50 GLP-1 (nM), cAMP AlphaScreen [1]: 0.23 nM
EC50 GLP-2 (nM), cAMP AlphaScreen [2]: 0.2 nM

B7: Compound 19 (peptide)
peptide: H-H[Aib]EGTFTSELATILDK([γGlu-C18 diacid])QAARDFIAWLIQHKITD-OH
SMILES: CC[C@H](C)[C@H](NC(=O)[C@H](Cc1ccccc1)NC(=O)[C@H](CC(=O)O)NC(=O)[C@H](CCCNC(=N)N)NC(=O)[C@H](C)NC(=O)[C@H](C)NC(=O)[C@H](CCC(N)=O)NC(=O)[C@H](CCCCNC(=O)CC[C@H](NC(=O)CCCCCCCCCCCCCCCCC(=O)O)C(=O)O)NC(=O)[C@H](CC(=O)O)NC(=O)[C@H](CC(C)C)NC(=O)[C@@H](NC(=O)[C@@H](NC(=O)[C@H](C)NC(=O)[C@H](CC(C)C)NC(=O)[C@H](CCC(=O)O)NC(=O)[C@H](CO)NC(=O)[C@@H](NC(=O)[C@H](Cc1ccccc1)NC(=O)[C@@H](NC(=O)CNC(=O)[C@H](CCC(=O)O)NC(=O)C(C)(C)NC(=O)[C@@H](N)Cc1c[nH]cn1)[C@@H](C)O)[C@@H](C)O)[C@@H](C)O)[C@@H](C)CC)C(=O)N[C@@H](C)C(=O)N[C@@H](Cc1c[nH]c2ccccc12)C(=O)N[C@@H](CC(C)C)C(=O)N[C@H](C(=O)N[C@@H](CCC(N)=O)C(=O)N[C@@H](Cc1c[nH]cn1)C(=O)N[C@@H](CCCCN)C(=O)N[C@H](C(=O)N[C@H](C(=O)N[C@@H](CC(=O)O)C(=O)O)[C@@H](C)O)[C@@H](C)CC)[C@@H](C)CC
EC50 GLP-1 (nM), cAMP AlphaScreen [1]: 0.066 nM
EC50 GLP-2 (nM), cAMP AlphaScreen [2]: 0.23 nM

From patent US20250073311A1, “DOSAGE REGIME” (ZEALAND PHARMA A/S, priority 2021, published 2025)
